Here are results for 6 substances from patent US20230285581A1.

In experiment [1] the target is human MSR1 extracellular domain expressed with a N-terminal nonahistidine tag (His9-hMSR1; R&D Systems, Cat #2708-MS) (human) (UniProt P21757). The experiment in a line: competition ELISA; 100 nM antibody, competitor Ac-LDL, plate-coated His9-hMSR1.
Experiment [2] has the same target. The experiment in a line: competition ELISA; 1 µM antibody, competitor 10 nM Ox-LDL, plate-coated His9-hMSR1. In general terms: In an ELISA, binding on a coated surface is turned into a signal by an enzyme label.
Experiment [3] has the same target. The experiment is described as follows: competition ELISA; 300 nM antibody, competitor biot-AGE-BSA, plate-coated His9-hMSR1.
Experiment [4] concerns the target human MSR1 endogenously expressed on PMA-differentiated THP-1 cells (human) (UniProt P21757). The experiment is described as follows: confocal imaging, 10 µg/mL antibody + Alexa Fluor 488 secondary on PMA-differentiated THP-1 cells.
For experiment [5], the target named is mouse MSR1 on RAW264.7 cells (mouse) (UniProt P30204). The experiment in a line: flow cytometry, RAW264.7 cells, 10 ug/mL. For orientation: A flow cytometer gives signals particle by particle.
mouse MSR1 on RAW264.7 cells (mouse), sequence (P30204 whole entry): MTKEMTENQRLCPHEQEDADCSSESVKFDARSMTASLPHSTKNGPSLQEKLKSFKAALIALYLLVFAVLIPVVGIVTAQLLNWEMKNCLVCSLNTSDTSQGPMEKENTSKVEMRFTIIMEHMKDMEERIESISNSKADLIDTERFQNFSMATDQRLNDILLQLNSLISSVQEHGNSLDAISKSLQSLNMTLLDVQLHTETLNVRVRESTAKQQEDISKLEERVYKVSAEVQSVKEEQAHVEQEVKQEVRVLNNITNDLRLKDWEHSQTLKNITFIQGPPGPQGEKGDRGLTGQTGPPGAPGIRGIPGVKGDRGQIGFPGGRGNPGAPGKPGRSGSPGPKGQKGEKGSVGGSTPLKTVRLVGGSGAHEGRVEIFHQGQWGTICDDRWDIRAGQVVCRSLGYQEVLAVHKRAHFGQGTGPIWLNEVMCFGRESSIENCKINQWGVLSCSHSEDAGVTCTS
The target of experiment [6] is full length monkey MSR1 on HEK293.mfMSR1 cells (Macaca fascicularis). The experiment is described as follows: ECL cell binding, HEK293.mfMSR1 cells.
full length monkey MSR1 on HEK293.mfMSR1 cells (Macaca fascicularis), sequence (chain, as listed by the source): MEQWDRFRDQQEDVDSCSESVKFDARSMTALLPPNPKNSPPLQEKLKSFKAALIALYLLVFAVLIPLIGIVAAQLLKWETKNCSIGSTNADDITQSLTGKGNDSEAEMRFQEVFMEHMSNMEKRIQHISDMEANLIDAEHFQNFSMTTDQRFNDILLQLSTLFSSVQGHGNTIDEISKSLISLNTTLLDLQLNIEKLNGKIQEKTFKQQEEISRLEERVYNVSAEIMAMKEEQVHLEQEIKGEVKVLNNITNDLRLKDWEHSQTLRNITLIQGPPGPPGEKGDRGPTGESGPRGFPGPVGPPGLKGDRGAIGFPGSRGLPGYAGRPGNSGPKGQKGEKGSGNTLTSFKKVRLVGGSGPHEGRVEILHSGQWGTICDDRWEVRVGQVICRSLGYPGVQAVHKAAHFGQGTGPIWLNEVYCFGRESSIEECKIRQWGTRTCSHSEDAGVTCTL
The target in experiment [7] is full length human MSR1 with a C-terminal Myc tag on HEK293.Myc.hMSR1 cells (human) (UniProt P21757). The experiment in a line: ECL cell binding, HEK293.Myc.hMSR1 cells.
full length human MSR1 with a C-terminal Myc tag on HEK293.Myc.hMSR1 cells (human), sequence (P21757 whole entry): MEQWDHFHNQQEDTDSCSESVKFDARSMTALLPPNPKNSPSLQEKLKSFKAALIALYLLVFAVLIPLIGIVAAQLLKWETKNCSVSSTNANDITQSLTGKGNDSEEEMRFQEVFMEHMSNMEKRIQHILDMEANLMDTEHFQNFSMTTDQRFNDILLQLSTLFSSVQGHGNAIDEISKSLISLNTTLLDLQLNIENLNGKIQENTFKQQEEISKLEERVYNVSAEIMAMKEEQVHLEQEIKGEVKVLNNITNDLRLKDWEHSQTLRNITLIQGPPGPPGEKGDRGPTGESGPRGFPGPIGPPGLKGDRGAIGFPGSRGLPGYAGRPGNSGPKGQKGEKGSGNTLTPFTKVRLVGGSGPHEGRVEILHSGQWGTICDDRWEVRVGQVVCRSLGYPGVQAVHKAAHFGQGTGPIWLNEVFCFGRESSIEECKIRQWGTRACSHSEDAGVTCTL
Experiment [8] concerns the target endogenously expressed human MSR1 on PMA-treated THP-1 cells (human) (UniProt P21757). The experiment in a line: ECL cell binding, PMA-treated THP-1 cells.

human MSR1 extracellular domain expressed with a N-terminal nonahistidine tag (His9-hMSR1; R&D Systems, Cat #2708-MS) (human), sequence (P21757 other isoform, or with tags, fused parts or gaps): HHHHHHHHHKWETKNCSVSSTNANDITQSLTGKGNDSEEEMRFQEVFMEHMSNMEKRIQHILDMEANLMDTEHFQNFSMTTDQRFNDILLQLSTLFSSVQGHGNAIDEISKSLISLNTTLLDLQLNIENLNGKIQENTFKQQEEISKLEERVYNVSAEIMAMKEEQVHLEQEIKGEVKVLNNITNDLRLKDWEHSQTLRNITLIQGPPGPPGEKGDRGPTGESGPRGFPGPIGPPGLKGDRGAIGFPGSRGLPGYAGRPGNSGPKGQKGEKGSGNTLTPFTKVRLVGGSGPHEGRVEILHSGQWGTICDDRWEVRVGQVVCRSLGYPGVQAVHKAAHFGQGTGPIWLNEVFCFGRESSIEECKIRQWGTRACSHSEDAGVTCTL
human MSR1 endogenously expressed on PMA-differentiated THP-1 cells (human), sequence (P21757 whole entry): as the sequence (P21757 whole entry) above
endogenously expressed human MSR1 on PMA-treated THP-1 cells (human), sequence (P21757 whole entry): as above

As for “Human IgG1 Isotype Control mAb (antibody)”, the % Blocking in experiment [1] is -8%; in experiment [2], 3%; in experiment [3], 4%.

For Isotype control (Table 19) (antibody), in experiment [4], the Total Binding at 4° C. (RFU) was found to be 186000 RFU and the Total Binding at 37° C. (RFU) is 1.09e+06 RFU.

Regarding “Mouse IgG1 Isotype control mAb (antibody)”, the % Blocking is -4% in experiment [1], 16% in experiment [2] and 7% in experiment [3].

For “commercial anti-mouse MSR1 antibody (Sino Biological, Cat #50129-R004)”, in experiment [5], the MFI is 245000 and the S/N worked out at 97.

Consider hIgG1 Isotype Control (antibody), for which the ratio of 11 nM antibody binding signal (RLU) to isotype control in experiment [6], in experiment [7] and in experiment [8] was 1 each time.

Consider mIgG Isotype Control (antibody), for which the ratio of 11 nM antibody binding signal (RLU) to isotype control in experiment [6], in experiment [7] and in experiment [8] was 1 each time.
